According to PMC12051018, “Purification and characterization of a thermophilic NAD ^+‐dependent lactate dehydrogenase from Moorella thermoacetica” (FEBS Open Bio, 2025):

B1: LDH from M. thermoacetica (Moorella thermoacetica ATCC 39073) (protein)
chain: MGLQGPAKVAIIGTGYVGSSTAFALLFSPLVKEMVLVDVNHAKAEGEAMDLAHAATLIRPVEVYAGRPADCAGSRIVIFTAGANQQPGQTRLDLIHRNTAIVRQALPEILHYCPEALVLMVANPVDILTYVAWKISGLPENRVLGSGTVLDSARFRHLLSRHYRVDPRNIHAYVIGEHGDTEVPVWSLANVAGVDLEEFYLMDGMREEEAFRVEISHQVREAAYEIIERKGVTSYGVALALSRIIECILRNEHSVLTISSVIRDLYGIDGEVALSLPCLVGNEGREKVLAIPLVAREKAALKHSATTLQQLIAQLSL
notes: native full-length, purified from lactate-grown cells; native 60 kDa, dimer
B2: NAD+-dependent lactate dehydrogenase from Moorella thermoacetica (enzyme, Moorella thermoacetica (DSM 521), UniProt Q2RHG3 1-317, looked up)
chain: B1 chain
notes: L-lactate dehydrogenase of Moorella thermoacetica DSM 521, product of the ldh gene (954 bp, predicted mass 34.6 kDa), identified by peptide mass fingerprinting; Native enzyme purified from the organism; on SDS-PAGE about 34 kDa, which fits the predicted monomer; also called LDH; gene product of the ldh gene

Key:
purified protein [1] = substrate: CC(=O)C(=O)O; assay: purified protein; assay type: biochemical, Neomoorella thermoacetica; conditions: 0.5 mM NADH, 50 mM Tris/HCl pH 8, 10 mM NaCl, 4 mM DTE, 65 °C, anoxic
purified protein [2] = substrate: NC(=O)C1=CN([C@@H]2O[C@H](COP(=O)(O)OP(=O)(O)OC[C@H]3O[C@@H](n4cnc5c(N)ncnc54)[C@H](O)[C@@H]3O)[C@@H](O)[C@H]2O)C=CC1; assay: purified protein; assay type: biochemical, Neomoorella thermoacetica; conditions: 1 mM pyruvate, 50 mM Tris/HCl pH 8, 10 mM NaCl, 4 mM DTE, 65 °C, anoxic, varied: cofactor
purified protein [3] = substrate: NC(=O)c1ccc[n+]([C@@H]2O[C@H](COP(=O)(O)OP(=O)(O)OC[C@H]3O[C@@H](n4cnc5c(N)ncnc54)[C@H](O)[C@@H]3O)[C@@H](O)[C@H]2O)c1; assay: purified protein; assay type: biochemical, Neomoorella thermoacetica; conditions: 20 mM L-lactate, 50 mM Tris/HCl pH 8, 10 mM NaCl, 4 mM DTE, 65 °C, anoxic, varied: cofactor
purified protein [4] = substrate: C[C@H](O)C(=O)O; assay: purified protein; assay type: biochemical, Neomoorella thermoacetica; conditions: 2 mM NAD+, 50 mM Tris/HCl pH 8, 10 mM NaCl, 4 mM DTE, 65 °C, anoxic
[5] = biological target: the molecule itself; assay: SEC; calibrated Superose 6 column, buffer 4 (50 mM Tris/HCl pH 7.5, 150 mM NaCl, 20 mM MgSO4, 20% glycerol, 4 mM DTE, 4 uM resazurin), size standards aprotinin, carbonic anhydrase, ovalbumin, conalbumin; native size 60 kDa against a 34 kDa monomer

Protein	Km (purified protein [1]) [µM]	Km (purified protein [2]) [µM]	Km (purified protein [3]) [µM]	Km (purified protein [4]) [µM]	stoichiometry N [5]
B1	1000	100	500	20000	–
B2	–	–	–	–	2
